According to IntAct's records for PubMed 29983246:

B1: Mitochondrial-derived peptide MOTS-c (Homo sapiens), A0A0C5B5G6 (parent)
chain: MRWQEMGYIFYPRKLR
partner: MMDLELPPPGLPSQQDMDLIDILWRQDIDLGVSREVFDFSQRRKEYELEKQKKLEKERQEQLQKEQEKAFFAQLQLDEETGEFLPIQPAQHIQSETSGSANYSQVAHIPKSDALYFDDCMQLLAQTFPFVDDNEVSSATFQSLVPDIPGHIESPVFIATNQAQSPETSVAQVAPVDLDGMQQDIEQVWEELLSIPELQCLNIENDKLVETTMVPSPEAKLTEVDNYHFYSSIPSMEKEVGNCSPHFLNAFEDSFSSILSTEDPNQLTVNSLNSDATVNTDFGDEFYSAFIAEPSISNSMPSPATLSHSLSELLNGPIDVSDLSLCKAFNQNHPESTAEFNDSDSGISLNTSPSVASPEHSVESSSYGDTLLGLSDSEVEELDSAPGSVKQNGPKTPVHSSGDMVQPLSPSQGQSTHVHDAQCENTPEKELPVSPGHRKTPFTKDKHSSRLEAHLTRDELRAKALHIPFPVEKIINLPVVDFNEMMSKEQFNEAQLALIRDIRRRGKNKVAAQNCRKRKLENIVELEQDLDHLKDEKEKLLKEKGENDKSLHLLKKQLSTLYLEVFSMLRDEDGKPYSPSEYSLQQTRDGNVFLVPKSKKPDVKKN

Variants of: B1
Details: with nf2l2_human NFE2L2, Q16236

effect of a mutation on the interaction | Variant
with no effect | R13A;K14A;L15A;R16A
